Data published in paper doi:10.1101/2025.09.05.674453.

What was measured:
[1] = target: Arginine-specific gingipain RgpB (Porphyromonas gingivalis) (UniProt P95493); assay: progress curve analysis of protease inhibition
[2] = target: Lysine-specific gingipain (Kgp), purified (Porphyromonas gingivalis) (UniProt Q51817); assay: progress curve analysis of protease inhibition
[3] = target: Arginine-specific gingipain RgpB (Porphyromonas gingivalis) (UniProt P95493); assay: titration of residual protease activity
[4] = target: Lysine-specific gingipain (Kgp), purified (Porphyromonas gingivalis) (UniProt Q51817); assay: titration of residual protease activity
[5] = target: Thiol protease (Tpr) (Porphyromonas gingivalis) (UniProt P25806); assay: progress curve analysis of protease inhibition
Sequence of UniProt P25806 (P25806 whole entry): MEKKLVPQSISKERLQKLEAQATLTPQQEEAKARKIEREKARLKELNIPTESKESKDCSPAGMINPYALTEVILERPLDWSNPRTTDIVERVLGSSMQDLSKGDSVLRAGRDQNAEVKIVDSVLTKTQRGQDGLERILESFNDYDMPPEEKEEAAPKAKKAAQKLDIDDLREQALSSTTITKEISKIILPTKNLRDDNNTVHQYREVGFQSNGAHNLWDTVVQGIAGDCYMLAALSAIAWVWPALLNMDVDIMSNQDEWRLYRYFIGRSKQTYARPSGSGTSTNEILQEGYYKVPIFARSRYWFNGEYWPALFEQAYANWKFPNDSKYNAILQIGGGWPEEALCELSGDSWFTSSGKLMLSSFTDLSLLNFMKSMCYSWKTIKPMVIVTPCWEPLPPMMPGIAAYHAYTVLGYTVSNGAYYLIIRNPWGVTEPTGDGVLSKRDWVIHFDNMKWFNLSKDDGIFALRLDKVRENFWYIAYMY

[6] = target: Thiol protease (Tpr) (Porphyromonas gingivalis) (UniProt P25806); assay: titration of residual protease activity

Sequence of UniProt Q51817 (Q51817 25-1732): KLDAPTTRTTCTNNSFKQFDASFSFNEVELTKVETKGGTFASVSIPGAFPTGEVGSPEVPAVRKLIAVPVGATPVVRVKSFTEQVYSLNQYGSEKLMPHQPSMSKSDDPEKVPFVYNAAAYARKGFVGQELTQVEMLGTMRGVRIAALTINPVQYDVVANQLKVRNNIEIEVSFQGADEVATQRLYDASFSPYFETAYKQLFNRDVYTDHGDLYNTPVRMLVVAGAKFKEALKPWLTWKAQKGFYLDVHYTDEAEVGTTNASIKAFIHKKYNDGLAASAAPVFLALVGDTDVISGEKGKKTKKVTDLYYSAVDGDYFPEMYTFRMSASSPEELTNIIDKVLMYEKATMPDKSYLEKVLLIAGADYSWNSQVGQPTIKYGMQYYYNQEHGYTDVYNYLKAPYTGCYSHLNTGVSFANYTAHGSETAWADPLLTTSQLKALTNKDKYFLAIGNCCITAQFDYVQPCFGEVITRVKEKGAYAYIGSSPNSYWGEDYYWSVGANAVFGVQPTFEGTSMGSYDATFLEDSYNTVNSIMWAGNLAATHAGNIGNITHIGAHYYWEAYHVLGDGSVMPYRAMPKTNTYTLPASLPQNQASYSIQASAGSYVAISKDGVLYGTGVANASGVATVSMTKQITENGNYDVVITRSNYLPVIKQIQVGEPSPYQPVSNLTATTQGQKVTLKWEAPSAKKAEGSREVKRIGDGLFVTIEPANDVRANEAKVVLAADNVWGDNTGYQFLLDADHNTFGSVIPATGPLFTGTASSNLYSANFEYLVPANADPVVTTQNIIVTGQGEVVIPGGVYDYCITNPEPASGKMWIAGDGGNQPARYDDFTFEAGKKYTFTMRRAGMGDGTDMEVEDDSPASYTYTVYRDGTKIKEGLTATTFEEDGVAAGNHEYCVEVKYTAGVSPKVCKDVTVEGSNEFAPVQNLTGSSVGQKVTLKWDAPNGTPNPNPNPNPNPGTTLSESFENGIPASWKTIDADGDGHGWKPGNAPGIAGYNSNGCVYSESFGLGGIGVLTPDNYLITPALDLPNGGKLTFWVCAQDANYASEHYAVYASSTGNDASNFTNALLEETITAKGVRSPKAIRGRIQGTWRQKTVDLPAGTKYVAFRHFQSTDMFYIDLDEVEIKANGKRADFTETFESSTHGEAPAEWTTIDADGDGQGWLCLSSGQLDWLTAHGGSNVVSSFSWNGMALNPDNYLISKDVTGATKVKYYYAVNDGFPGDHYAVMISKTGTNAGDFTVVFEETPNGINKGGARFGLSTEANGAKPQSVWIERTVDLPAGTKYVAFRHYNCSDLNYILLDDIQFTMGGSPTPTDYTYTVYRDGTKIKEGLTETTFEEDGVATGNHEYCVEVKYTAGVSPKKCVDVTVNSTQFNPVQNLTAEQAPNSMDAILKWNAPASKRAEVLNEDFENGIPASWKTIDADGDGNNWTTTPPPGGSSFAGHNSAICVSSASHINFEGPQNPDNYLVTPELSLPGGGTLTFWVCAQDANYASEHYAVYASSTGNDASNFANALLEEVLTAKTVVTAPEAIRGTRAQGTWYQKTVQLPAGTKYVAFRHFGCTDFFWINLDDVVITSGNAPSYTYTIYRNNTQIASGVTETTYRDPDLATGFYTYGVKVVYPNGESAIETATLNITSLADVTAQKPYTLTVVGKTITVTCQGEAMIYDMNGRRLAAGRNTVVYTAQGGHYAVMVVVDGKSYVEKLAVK
Sequence of UniProt P95493 (P95493 25-736): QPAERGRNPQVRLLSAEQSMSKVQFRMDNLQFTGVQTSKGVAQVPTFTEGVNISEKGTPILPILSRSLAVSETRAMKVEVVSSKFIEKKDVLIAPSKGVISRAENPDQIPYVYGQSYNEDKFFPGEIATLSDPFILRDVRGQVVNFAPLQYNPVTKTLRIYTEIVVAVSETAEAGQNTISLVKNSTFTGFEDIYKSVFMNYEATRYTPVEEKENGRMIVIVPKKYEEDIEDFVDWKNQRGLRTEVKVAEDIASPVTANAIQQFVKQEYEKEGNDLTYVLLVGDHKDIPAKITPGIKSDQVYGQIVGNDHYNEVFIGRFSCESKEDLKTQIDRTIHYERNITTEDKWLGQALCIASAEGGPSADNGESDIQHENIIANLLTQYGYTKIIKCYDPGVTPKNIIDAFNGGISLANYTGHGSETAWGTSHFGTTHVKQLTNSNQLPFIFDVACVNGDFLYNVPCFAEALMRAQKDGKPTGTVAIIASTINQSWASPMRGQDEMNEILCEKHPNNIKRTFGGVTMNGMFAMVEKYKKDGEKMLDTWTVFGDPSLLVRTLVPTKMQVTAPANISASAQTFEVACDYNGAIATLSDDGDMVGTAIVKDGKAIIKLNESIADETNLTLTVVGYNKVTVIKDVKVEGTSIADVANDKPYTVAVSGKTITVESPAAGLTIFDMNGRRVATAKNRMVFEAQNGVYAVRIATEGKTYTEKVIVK

Substance	kon [1] [M⁻¹ s⁻¹]	kon [2] [M⁻¹ s⁻¹]	stoichiometry of inhibition (SI) [3]	stoichiometry of inhibition (SI) [4]	kon [5] [M⁻¹ s⁻¹]	stoichiometry of inhibition (SI) [6]
RVK-miropin (natural protein)	740000	330000	1.7	1.7		
Recombinant wild-type miropin (VKT-mir) (natural protein)		220000		1.9	2500	9.3
